Test results reported in article PMC9756947, “Structural basis of transcription regulation by CNC family transcription factor, Nrf2” (Nucleic Acids Research, 2022).
Blank lines part the entries; values can stand above or below the binder they belong to.

Legend:
MafG (EMSA construct) = MafG (EMSA construct) (Homo sapiens, UniProt O15525); test: EMSA; homodimer; 16 h; EMSA: 20 mM Tris-HCl pH 7.2, 150 mM KCl, 10 mM DTT, 8 mg/ml BSA, 0.005% Tween 20, 50 ng/ml poly(dI-dC), 2.5% Ficoll; probe ~1.6 pM; 16 h (30 min for Jun-Fos); competitive assay at 4 C; gel at 4 C; conditions: protein: recombinant; tags: N-terminal His6, removed by HRV 3C (GPHM left); chain copies: 2; label: 32P 5' end; text says 30 bp)
[1] = molecular target: c-Jun fragment;c-Fos fragment (Homo sapiens;Homo sapiens, UniProt P05412;P01100 ;, |); test: EMSA; heterodimer; 30 min; EMSA: 20 mM Tris-HCl pH 7.2, 150 mM KCl, 10 mM DTT, 8 mg/ml BSA, 0.005% Tween 20, 50 ng/ml poly(dI-dC), 2.5% Ficoll; probe ~1.6 pM; 16 h (30 min for Jun-Fos); competitive assay at 4 C; gel at 4 C; conditions: protein: recombinant;recombinant; tags: N-terminal His6;N-terminal His6; copies: 1;1; label: 32P 5' end; text says 30 bp)
[2] = molecular target: T1, Nrf2 long fragment, wild type;MafG (EMSA construct) (Homo sapiens;Homo sapiens, UniProt Q16236;O15525 ;, |); test: EMSA; Nrf2:MafG 3:1; MafG concentration taken as heterodimer; 16 h; EMSA: 20 mM Tris-HCl pH 7.2, 150 mM KCl, 10 mM DTT, 8 mg/ml BSA, 0.005% Tween 20, 50 ng/ml poly(dI-dC), 2.5% Ficoll; probe ~1.6 pM; 16 h (30 min for Jun-Fos); competitive assay at 4 C; gel at 4 C; conditions: protein: recombinant;recombinant; tags: N-terminal His6 (not removed);N-terminal His6, removed by HRV 3C (GPHM left); copies: 1;1; label: 32P 5' end; text says 30 bp)
[3] = molecular target: T1, Nrf2 long fragment, wild type;MafG …; test: EMSA (competitive, vs MafG homodimer); EC50 of Nrf2 at 1 nM MafG; 4 C, 16 h; EMSA: 20 mM Tris-HCl pH 7.2, 150 mM KCl, 10 mM DTT, 8 mg/ml BSA, 0.005% Tween 20, 50 ng/ml poly(dI-dC), 2.5% Ficoll; probe ~1.6 pM; 16 h (30 min for Jun-Fos); competitive assay at 4 C; gel at 4 C; conditions: protein: recombinant;recombinant; tags: N-terminal His6 (not removed);N-terminal His6, removed by HRV 3C (GPHM left); copies: 1;1; label: 32P 5' end; text says 30 bp)
[4] = molecular target: T2, Nrf2 DNA-binding domain (CNC-bZIP);MafG (crystal construct) (Homo sapiens;Homo sapiens, UniProt Q16236;O15525 ;, |); test: X-ray crystallography; 2.6 A; EMSA: 20 mM Tris-HCl pH 7.2, 150 mM KCl, 10 mM DTT, 8 mg/ml BSA, 0.005% Tween 20, 50 ng/ml poly(dI-dC), 2.5% Ficoll; probe ~1.6 pM; 16 h (30 min for Jun-Fos); competitive assay at 4 C; gel at 4 C; conditions: protein: recombinant;recombinant; tags: N-terminal His6, removed by HRV 3C (GPHM left);none; copies: 1;1; 1-nt 5' overhang on each strand (15 bp)
[5] = molecular target: T3, human c-Fos fragment (residues 111–207) (human, UniProt P01100 111-207); test: native gel or EMSA; EMSA to determine KD for DNA: dimers mixed with 32P-end labeled CsMBE DNA probe (about 1.6 pM) in 20 mM Tris–HCl pH 7.2, 150 mM KCl, 10 mM DTT, BSA, Tween 20, Poly(dI-dC), Ficol; 30 min (Jun–Fos) or 16 h (Nrf2–MafG, MafG homodimer); Nrf2 and MafG mixed at 3:1; complexes seen on DNA; conditions: both partners purified
T3 construct: human c-Fos, residues 111-207; The tag is cleavable with HRV 3C protease, but no removal is described; source: E. coli BL21(DE3)-RIL, precipitate solubilized in 6 M guanidine-HCl, purified (HisTrap HP), dialyzed

[6] = molecular target: T2, Nrf2 DNA-binding domain (CNC-bZIP);MafG …; test: X-ray crystallography; 2.3 A; EMSA: 20 mM Tris-HCl pH 7.2, 150 mM KCl, 10 mM DTT, 8 mg/ml BSA, 0.005% Tween 20, 50 ng/ml poly(dI-dC), 2.5% Ficoll; probe ~1.6 pM; 16 h (30 min for Jun-Fos); competitive assay at 4 C; gel at 4 C; conditions: protein: recombinant;recombinant; tags: N-terminal His6, removed by HRV 3C (GPHM left);none; copies: 1;1; 1-nt 5' overhang on each strand (15 bp)
[7] = molecular target: T4, human Nrf2 fragment (residues 452–560) (human, UniProt Q16236 452-560); test: crystal structure; Nrf2, MafG and DNA (CsMBE1 or CsMBE2) mixed at a molar ratio of 1:1:1, 10 mg/ml in 33 mM DTT; two Nrf2–MafG–DNA complexes in the asymmetric unit; conditions: both partners purified
T4 construct: His6 tag removed with HRV 3C protease; also called NFE2L2; Nuclear factor erythroid 2-like factor; source: E. coli BL21 (DE3), purified (phosphocellulose P11, HisTrap HP, HiTrap SP, Superdex 75); not shown: His6, N-terminal, cleaved
T4 sequence (looked up): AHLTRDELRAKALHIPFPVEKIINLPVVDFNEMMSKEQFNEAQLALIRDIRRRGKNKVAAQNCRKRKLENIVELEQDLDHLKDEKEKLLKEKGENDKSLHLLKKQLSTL

[8] = molecular target: T5, longer human Nrf2 fragment (residues 182–560) (human, UniProt Q16236 182-560); test: native gel or EMSA; EMSA to determine KD for DNA: dimers mixed with 32P-end labeled CsMBE DNA probe (about 1.6 pM) in 20 mM Tris–HCl pH 7.2, 150 mM KCl, 10 mM DTT, BSA, Tween 20, Poly(dI-dC), Ficol; 30 min (Jun–Fos) or 16 h (Nrf2–MafG, MafG homodimer); Nrf2 and MafG mixed at 3:1; complexes seen on DNA; conditions: both partners purified
T5 construct: human Nrf2 (NFE2L2), residues 182-560; Used for EMSA; also called Nrf2 (182–560); wild-type Nrf2; not shown: His6, N-terminal, kept
T5 sequence (looked up): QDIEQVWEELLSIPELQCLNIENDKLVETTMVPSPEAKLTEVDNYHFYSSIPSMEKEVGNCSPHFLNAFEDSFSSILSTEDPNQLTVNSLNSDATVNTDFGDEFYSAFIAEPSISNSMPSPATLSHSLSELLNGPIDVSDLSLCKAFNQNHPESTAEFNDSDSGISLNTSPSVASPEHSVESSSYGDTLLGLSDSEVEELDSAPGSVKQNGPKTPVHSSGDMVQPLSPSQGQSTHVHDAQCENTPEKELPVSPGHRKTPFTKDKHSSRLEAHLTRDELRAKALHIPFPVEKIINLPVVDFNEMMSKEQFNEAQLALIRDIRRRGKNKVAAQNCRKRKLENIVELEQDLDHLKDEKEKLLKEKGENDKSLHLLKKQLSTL

[9] = molecular target: the molecule itself; test: as above

T3 sequence (P01100 111-207): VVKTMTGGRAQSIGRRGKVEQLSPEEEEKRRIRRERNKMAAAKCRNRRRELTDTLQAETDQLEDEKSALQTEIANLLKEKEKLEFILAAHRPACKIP
Chain of c-Jun fragment;c-Fos fragment (P05412 other isoform, or with tags, fused parts or gaps |, chain 1 of 2): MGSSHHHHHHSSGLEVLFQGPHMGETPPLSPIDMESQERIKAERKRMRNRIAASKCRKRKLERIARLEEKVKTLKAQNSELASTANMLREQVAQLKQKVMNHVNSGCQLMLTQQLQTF
Chain of c-Jun fragment;c-Fos fragment (P01100 other isoform, or with tags, fused parts or gaps |, chain 2 of 2): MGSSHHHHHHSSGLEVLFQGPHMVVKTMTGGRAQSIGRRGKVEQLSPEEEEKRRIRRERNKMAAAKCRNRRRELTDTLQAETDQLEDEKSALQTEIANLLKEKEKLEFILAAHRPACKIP

B1: EMSA CsMBE probe (dsDNA)
DNA 1: CCGCAGTCACAGTGACTCAGCAGAATCTGA
DNA 2: CTCAGATTCTGCTGAGTCACTGTGACTGCG
- Kd (MafG (EMSA construct)): 0.69 nM
- Kd [1]: 129 nM
- Kd [2]: 0.53 nM
- apparent K (half saturation) [3]: 2.1 nM

B2: CsMBE2 (dsDNA)
DNA 1: CACAGTGACTCAGCAG
DNA 2: GCTGCTGAGTCACTGT
- binding result [4]: binds

B4: CsMBE1 (dsDNA)
DNA 1: CATGATGAGTCAGCAA
DNA 2: GTTGCTGACTCATCAT
- binding result [6]: binds

The next lines start with results.

- binding result [5]: binds
B3: human c-Jun fragment (residues 237–331) (domain or fragment, UniProt P05412 237-331, looked up)
chain: GETPPLSPIDMESQERIKAERKRMRNRIAASKCRKRKLERIARLEEKVKTLKAQNSELASTANMLREQVAQLKQKVMNHVNSGCQLMLTQQLQTF
notes: human c-Jun, residues 237-331; source: E. coli, expressed and purified similarly to the c-Fos fragment

- binding result [7]: binds
B5: human MafG (residues 21–123, without any tag) (domain or fragment, UniProt O15525 21-123, looked up)
chain: GTSLTDEELVTMSVRELNQHLRGLSKEEIVQLKQRRRTLKNRGYAASCRVKRVTQKEELEKQKAELQQEVEKLASENASMKLELDALRSKYEALQTFARTVAR
notes: human MafG, residues 21-123: EHR, basic region and leucine zipper; Construct used for crystallization; source: E. coli BL21 (DE3), pAR2156-MafG, plating method, purified (HiTrap Heparin, Superdex 75)

- binding result [8]: binds
B6: human MafG fragment (residues 21–123), His6 tag removed (domain or fragment, UniProt O15525 21-123, looked up)
chain: B5 chain
notes: human MafG, residues 21-123; Construct used for EMSA; also called MafG (21–123); source: E. coli BL21(DE3)-RIL, purified (phosphocellulose P11, HisTrap HP, Superdex 75); not shown: His6, N-terminal, cleaved
- binding result [9]: binds
